Experimental data: the supplement of paper PMC10567573

B1: MCOLN1 (parent)
chain: EEEDLRRRLKYFFMSPCDKFRAKG

Variants of: B1
Test: protein stability index of a GFP-peptide fusion (GPS, HEK-293T) (PSI 1-6); higher = more stable
Conditions: c terminus: a fixed tail appended
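Note: lentivirally expressed fusions sorted by FACS into six bins by GFP to DsRed ratio, PSI derived from sequencing read proportions per bin multiplied by bin number.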

Protein stability index: each site, then its substitutions
E2: Y 1.94 | Q 2.27 | S 1.86
F20: W 2.21 | I 2.14 | C 2.9 | P 3.59
A22: S 2.27 | C 1.97 | Q 2.13 | N 2.21 | D 2.64 | M 2.13
S15: Q 2.84 | P 1.65 | V 2 | M 1.94 | C 1.66 | E 3.26
F12: T 3.62 | S 3.58
R8: G 2.97 | A 2 | V 2.62 | N 3.29 | K 2.71 | P 3.23
P16: I 1.95 | T 2.68 | A 2.12 | R 2.26 | V 2.12 | K 2.61 | W 2.19 | N 2.11 | C 1.84 | Y 2.39
R7: F 2.44 | A 2.35 | K 2.63 | I 2.39 | Q 2.52
L9: A 3.3 | S 3.91 | G 3.64 | Q 3.7 | T 3.33 | E 4.4 | I 1.92
D18: Q 2.2 | H 2.05 | G 2.06 | E 1.94 | I 2.49 | T 1.53 | N 1.77
R6: A 3.18 | S 3.6 | P 2.11 | W 1.8 | M 1.42 | V 2.34 | E 3.48 | D 3.28 | H 1.97
F13: D 3.22 | V 3.45 | K 3.23 | T 3.61 | H 3.75 | L 3.2 | E 3.74 | C 3.8 | Q 3.65
K10: L 2.97 | G 2.58 | V 2.32 | F 1.82 | R 2.33 | H 2.11 | C 2.15 | M 1.93 | E 2.67
C17: V 2.53 | Q 3.58 | E 3.23 | W 2.13 | L 2.19 | P 2.9 | M 1.97 | I 2.59 | S 2.54
E1: S 2.24 | C 3.42 | H 3.05 | N 1.51 | V 1.51 | D 2.96 | L 2.16 | P 2.14 | Q 1.62 | A 2.53 | G 2.46
L5: Q 3.84 | S 2.92 | N 3.51 | Y 2.45 | I 1.92
K23: L 1.86 | I 2.01 | F 1.64 | A 2.78 | T 2.31 | S 2.26 | P 2.5 | Q 2.59 | Y 1.53 | C 2.43
G24: I 2.37 | Q 4.48 | M 2.29 | C 1.82 | P 2.4
D4: I 1.71 | P 2.94 | N 2.04 | G 3.22 | V 1.74 | S 1.42 | W 1.44 | L 2.13
K19: G 2.37 | Y 2.75 | Q 2.73 | R 1.55 | P 2.66
R21: K 2.93 | C 2.65 | G 3.01 | W 1.81 | P 3.09 | Q 3.04 | I 2.51
E3: H 2.33 | P 2.25 | N 1.91 | W 1.14 | F 2.04 | C 2.65 | M 1.15 | V 2.83 | D 2.41
M14: S 2.96 | H 2.59 | F 2.83 | K 3.14 | Y 2.23 | P 3.16 | I 2.87
Y11: V 2.93 | P 3.33 | H 2.46 | N 3.23 | M 2.79 | S 2.88 | T 2.82 | Q 3.25
